Source: paper PMC7039410 (Nature, 2019)

Experiments:
[1] = molecular target: histone H2B, in the mononucleosome (X. laevis, UniProt P02281 2-126); experiment: cross-linking
AUC = molecular target: the molecule itself; experiment: AUC

B1: Swi6 (natural protein)
chain: MKKGGVRSYRRSSTSKRSVIDDDSEPELPSMTKEAIASHKADSGSSDNEVESDHESKSSSKKLKENAKEEEGGEEEEEDEYVVEKVLKHRMARKGGGYEYLLKWEGYDDPSDNTWSSEADCSGCKQLIEAYWNEHGGRPEPSKRKRTARPKKPEAKEPSPKSRKTDEDKHDKDSNEKIEDVNEKTIKFADKSQEEFNENGPPSGQPNGHIESDNESKSPSQKESNESEDIQIAETPSNVTPKKKPSPEVPKLPDNRELTVKQVENYDSWEDLVSSIDTIERKDDGTLEIYLTWKNGAISHHPSTITNKKCPQKMLQFYESHLTFRENE
binding result [1]: binds
stoichiometry N (AUC): 2
